Measurements published in patent publication US20160032005A1 (INSERM INSTITUT NATIONAL DE LA SANTE ET DE LA RECHERCHE …, published 2016).

B1: EGFP-tagged p62 (1-122), PB1 domain alone (other)
chain: MASLTVKAYLLGKEDAAREIRRFSFCCSPEPEAEAEAAAGPGPCERLLSRVAALFPALRPGGFQAHYRDEDGDLVAFSSDEELTMAMSYVKDDIFRIYIKEKKECRRDHRPPCAQEAPRNMV
notes: not shown: EGFP tag
B2: Vangl2 in COS-7 cells (receptor)
chain: MDTESQYSGYSYKSGHSRSSRKHRDRRDRHRSKSRDGGRGDKSVTIQAPGEPLLDNESTRGDERDDNWGETTTVVTGTSEHSISHDDLTRIAKDMEDSVPLDCSRHLGVAAGATLALLSFLTPLAFLLLPPLLWREELEPCGTACEGLFISVAFKLLILLLGSWALFFRRPKASLPRVFVLRALLMVLVFLLVVSYWLFYGVRILDARERSYQGVVQFAVSLVDALLFVHYLAVVLLELRQLQPQFTLKVVRSTDGASRFYNVGHLSIQRVAVWILEKYYHDFPVYNPALLNLPKSVLAKKVSGFKVYSLGEENSTNNSTGQSRAVIAAAARRRDNSHNEYYYEEAEHERRVRKRRARLVVAVEEAFTHIKRLQEEEQKNPREVMDPREAAQAIFASMARAMQKYLRTTKQQPYHTMESILQHLEFCITHDMTPKAFLERYLAAGPTIQYHKERWLAKQWTLVSEEPVTNGLKDGIVFLLKRQDFSLVVSTKKVPFFKLSEEFVDPKSHKFVMRLQSETSV
notes: Vangl2 immunoprecipitated with 2G4 mAb from COS-7 cells

Key:
Vangl2 in COS-7 cells = molecular target: B2; experiment: immunoprecipitation with 2G4 mAb, COS-7 cells
[1] = molecular target: GFP-p62 with deletion of a region containing the LIR domain (256-370) (Homo sapiens, UniProt P42212 1-238 = GFP); experiment: immunoprecipitation with 2G4 mAb, COS-7 cells

| Binder | binding result (Vangl2 in COS-7 cells) | binding result [1] |
| --- | --- | --- |
| B1 | no binding | – |
| B2 | – | no binding |
